We go through one protein from publication PMC11286295, “Aspartate aminotransferase of Rhizobium leguminosarum has extended substrate specificity and metabolizes aspartate to enable N2 fixation in pea nodules” (Microbiology, 2024).

Holding throughout (assay): purified protein
Substrate in data set [1]: O=C(O)CC(=O)C(=O)O
Particulars: GOT reaction, co-substrate glutamate, 0.05 mM PLP, 100 mM NH4Cl, 100 mM phosphate pH 7.5, 30 °C.

Substrate in data set [2]: N[C@@H](CC(=O)O)C(=O)O
The note with it: AKT reaction, co-substrate α-ketoglutarate, 0.05 mM PLP, 100 mM phosphate pH 7.5, 30 °C.

Substrate in data set [3]: N[C@@H](CCC(=O)O)C(=O)O
Type of data set: biochemical, Rhizobium leguminosarum. Particulars: GOT reaction, co-substrate oxaloacetate, 0.05 mM PLP, 100 mM NH4Cl, 100 mM phosphate pH 7.5, 30 °C.

Substrate in data set [4]: O=C(O)CCC(=O)C(=O)O
It counts as biochemical, Rhizobium leguminosarum. The note with it: AKT reaction, co-substrate aspartate, 0.05 mM PLP, 100 mM phosphate pH 7.5, 30 °C.

Substrate in data set [5]: CC(=O)C(=O)O
Type of data set: biochemical, Rhizobium leguminosarum. Particulars: APT reaction, co-substrate aspartate, 0.05 mM PLP, 100 mM phosphate pH 7.5, 30 °C.

B1: AatA (Rhizobium leguminosarum bv. phaseoli) (protein)
chain: MAFLADALSRVKPSATIAVSQKARELKAKGRDVIGLGAGEPDFDTPDNIKKAAIDAINRGETKYTPVSGIPELRKAIAAKFKRENGLDYSWEQTIVGTGGKQILFNAFMATLNPGDEVSIPAPYWVSYPEMVALCGGTRFFVSATQEHNFKLQAADLEKAITPKTKWFIFNSPSNPTGAAYTHDELKALTDVLMKNPQVWVLTDDMYEHLTYGDFKFVTPVEVEPQLYDRTLTMNGVSKAYAMTGWRIGYAAGPIQLIKAMDMIQGQQTSGATSIAQWAAVEALNGTQDFIPENKKIFEGRRDLVVSMLNQAKGIVCPVPEGAFYVYPSCKGLIGKTAPSGKVIETDEDFVSELLESEGVAVVHGSAFGLGPNFRISYATSEEQLEEACRRIQRFCGACK
notes: recombinant from A34 gDNA in pET101/D-TOPO (pRU1152; vector with V5-tag and 6xHis), E. coli BL21 Star (DE3), His-Trap purified (histidine elution); expected homodimer; glycine at position 266
Broadly, the Km is the concentration of substrate that gives half-maximal velocity. A word on the kcat: it is the number of substrate molecules converted per active site and unit of time at saturation. For B1, the Km came to 180 ± 30 µM in “purified protein [1]”; 1740 ± 320 µM in the data set “purified protein [2]”; 4430 ± 520 µM in the data set “purified protein [3]”; 320 ± 20 µM in “purified protein [4]”; 17000 ± 2000 µM in “purified protein [5]”. Also, the kcat in “purified protein [1]” was found to be 168.08 ± 6.55 s⁻¹; in the data set “purified protein [2]”, 125.88 ± 5.09 s⁻¹; in the data set “purified protein [3]”, 163.71 ± 3.64 s⁻¹; in the data set “purified protein [4]”, 130.97 ± 2.18 s⁻¹; in “purified protein [5]”, 98.96 ± 4.37 s⁻¹.
